The source of these data is article PMC2872554 (Nature structural & molecular biology, 2010).

In data set [1] the target is mouse E-cadherin EC1-2 AA extension mutant (mouse). The data set is described as follows: AUC.
Data set [2] has as its target mouse E-cadherin EC1-2 E89A (mouse). The data set is described as follows: AUC.
For data set [3], the target named is mouse E-cadherin EC1-2 K14E (mouse). The data set is described as follows: AUC.
Data set [4] has as its target mouse E-cadherin EC1-2 K14S (mouse). The data set is described as follows: AUC.
The target of data set [5] is mouse E-cadherin EC1-2 W2A (mouse). The data set is described as follows: AUC.
The target of data set [6] is mouse E-cadherin EC1-2 Y142R (mouse). The data set is described as follows: AUC.
The target in data set [7] is mouse E-cadherin EC1-2 fragment, wild type (mouse). The data set is described as follows: AUC.
For data set [8], the target named is mouse cadherin-6 EC1-2 M188D (mouse). The data set is described as follows: AUC.
Data set [9] deals with C-terminally biotinylated mouse cadherin-6 EC1-2 M188D (mouse). The data set is described as follows: SPR.
The target in data set [10] is mouse cadherin-6 EC1-2 W4A (mouse). The data set is described as follows: AUC.
Data set [11] concerns the target mouse cadherin-6 EC1-2 fragment, wild type (mouse). The data set is described as follows: AUC.
Data set [12] deals with the molecule itself. The data set is described as follows: crystal structure.

Turning to “mouse E-cadherin EC1-2 AA extension mutant (domain or fragment)”, the Kd in data set [1] was 811 µM.
“mouse E-cadherin EC1-2 E89A (domain or fragment)” returned a Kd in [2] of 293 µM.
For “mouse E-cadherin EC1-2 K14E (domain or fragment)”, the dissociation constant Kd in data set [3] worked out at 117 µM.
“mouse E-cadherin EC1-2 K14S (domain or fragment)”: the Kd in data set [4] was 96 µM.
“mouse E-cadherin EC1-2 W2A (domain or fragment)” had a dissociation constant Kd in [5] of 916 µM.
“mouse E-cadherin EC1-2 Y142R (domain or fragment)” showed a Kd in data set [6] of 77.4 µM. This lies in the double-digit micromolar range.
In data set [7], “mouse E-cadherin EC1-2 fragment, wild type (domain or fragment)” came in with a Kd of 98.6 µM.
In data set [8], “mouse cadherin-6 EC1-2 M188D (domain or fragment)” had a dissociation constant (Kd) of 12.6 µM. This molecule also gave a binding response in data set [9] of under 10 RU.
Molecule “mouse cadherin-6 EC1-2 W4A (domain or fragment)” displayed a Kd in data set [10] of 321 µM.
On to “mouse cadherin-6 EC1-2 fragment, wild type (domain or fragment)”, for which, in data set [11], the Kd turned out to be 3.1 µM.

B1: mouse N-cadherin EC1-2 fragment, wild type (domain or fragment)
chain: DWVIPPINLPENSRGPFPQELVRIRSDRDKNLSLRYSVTGPGADQPPTGIFIINPISGQLSVTKPLDRELIARFHLRAHAVDINGNQVENPIDIVINVIDMNDNRPEFLHQVWNGSVPEGSKPGTYVMTVTAIDADDPNALNGMLRYRILSQAPSTPSPNMFTINNETGDIITVAAGLDREKVQQYTLIIQATDMEGNPTYGLSNTATAVITVTD
As to B1, in [12], the binding result is on record as “binds”.
